Measurements taken from patent publication US20170304437A1 (ALLIGATOR BIOSCIENCE, published 2017).
Each block holds one binder with its values, some of them ahead of it.

Legend:
[1] = target: T1, CD40-Fc (Ancell # 504-820) (human, UniProt P25942 21-193); assay: binding ELISA, CD40-Fc coated, one fixed concentration (100 ng/ml), anti-human IgG Fc-HRP
T1 construct: Bought reagent; also called human CD40; not shown: Fc part of the bought fusion
Procedure: (§1) In short, 96-well flat bottom plate high binding plates (Greiner #655074) were coated with CD40-Fc (Ancell # 504-820) by incubating overnight at 4° C. The plates were washed (Wash buffer: PBS+0.05% Tween 20 (PBST) Medicago #09-9410-100) and then blocked in PBST+3% BSA (Merck, #1.12018.0100). The plates were washed again and samples or control (serial dilutions 1/2, starting at 0.2 ug/ml) were added to the wells.
(§2) The samples were incubated for 1 h at room temperature and then washed. Detection antibody, goat-anti-human IgG Fcγ-HRP (Jackson, #109-035-098) was added and the plates were subsequently developed using SuperSignal Pico Chemiluminescent substrate (Thermo #37069) and detected with Envision reader (Perkin Elmer). In FIG. 6A the binding of bispecific molecules at different concentrations to CD40 coated onto an ELISA plate is shown. In FIG. 6B, the binding of bispecific molecules at one fixed concentration (100 ng/ml) to CD40 coated onto an ELISA plate is shown. The bispecific molecules bind specifically to CD40.

[2] = target: T1, CD40-Fc (Ancell # 504-820); assay: binding ELISA, CD40-Fc coated, one fixed concentration, anti-human IgG Fc-HRP
Procedure: as §1, §2

[3] = target: T2, human CTLA4-Fc (Fitzgerald #30R-CD152) (human, UniProt P16410 38-152); assay: binding ELISA, CTLA4-Fc coated, sample titrated, anti-human IgG Fc-HRP, chemiluminescence, data normalised to % [both panels]
T2 construct: Bought reagent; also called biotinylated-CTLA4; human CTLA-4 (Fitzgerald); not shown: Fc part of the bought fusion
Procedure: (§3) The plates were washed (Wash buffer: PBS+0.05% Tween 20 (PBST) Medicago #09-9410-100) and then blocked in PBST+3% BSA (Merck, #1.12018.0100). The plates were washed again and sample or controls (serially diluted 1/3 from […]) were added to the wells. The samples were incubated for 1 h at room temperature and then washed. Detection antibody, goat-anti-human IgG Fγy-HRP (Jackson, #109-035-098) was added and the plates were subsequently developed using SuperSignal Pico Chemiluminescent substrate (Thermo #37069) and detected with an Envision reader (Perkin Elmer).

[4] = target: T2, human CTLA4-Fc (Fitzgerald #30R-CD152); assay: binding ELISA, CTLA4-Fc coated, sample titrated, anti-human IgG Fc-HRP, chemiluminescence, data normalised to % [upper panel]
Procedure: as §3

[5] = target: T3, CD28-Fc (provided by Simon Davis, Oxford University) (human, UniProt P10747 19-152, limits assumed); assay: binding ELISA, coated CD28-Fc
T3 construct: Gift reagent; not shown: Fc part
Procedure: as §3

[6] = target: T2, human CTLA4-Fc (Fitzgerald #30R-CD152); assay: binding ELISA, CTLA4-Fc coated, sample titrated, anti-human IgG Fc-HRP, chemiluminescence, data normalised to % [lower panel]
Procedure: as §3

[7] = target: T1, CD40-Fc (Ancell # 504-820); assay: binding ELISA, CD40-Fc coated, sample titrated, anti-human IgG Fc-HRP, chemiluminescence
Procedure: as §1, §2

T2 sequence (P16410 38-152 limits assumed): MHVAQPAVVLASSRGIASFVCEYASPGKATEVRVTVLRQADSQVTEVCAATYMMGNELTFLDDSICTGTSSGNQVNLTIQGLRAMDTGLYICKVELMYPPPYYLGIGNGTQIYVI
T1 sequence (P25942 21-193 limits assumed): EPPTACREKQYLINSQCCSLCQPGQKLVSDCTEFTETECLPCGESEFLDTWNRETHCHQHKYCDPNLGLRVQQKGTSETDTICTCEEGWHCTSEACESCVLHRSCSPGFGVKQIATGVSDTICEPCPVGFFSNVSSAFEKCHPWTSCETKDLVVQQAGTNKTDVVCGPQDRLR

B2: isolated polypeptide of amino acid sequence SEQ ID NO: 8 (soluble CTLA-4 binding domain reference 904) (ligand)
chain: LKIQAYFNETADLPCQFANSQNQSLSELIVFWQDQENLVLNEVYLGKERFDAVDSKYMGRTSFDSDSWTLRLHNLQIKDKGIYQCIIHHKKPSGMVKIHQMDSELSVLA
notes: Control in the CD40 ELISA
binding result [2]: no binding (tested: 100 ng/ml (not on the sheet))

B3: wild type human CD86 soluble extracellular domain (control in Examples 2 and 4) (ligand)
chain: APLKIQAYFNETADLPCQFANSQNQSLSELVVFWQDQENLVLNEVYLGKEKFDSVHSKYMGRTSFDSDSWTLRLHNLQIKDKGLYQCIIHHKKPTGMIRIHQMNSELSVLA
notes: probably the same Fc fusion as the clones; also called wild-type protein CD86; wild type CD86; not shown: the clones it is compared with were gamma2/gamma4 Fc fusions and detection was by anti
EC50 (read off the curve) [3]: ~0.5 µg/mL

B4: CD86 mutant clone 1038, gamma2/gamma4 fusion (Fc fusion)
chain: APLKIQAYFNETADLPCQFANSQNLSLSELVVFWQDQENLVLNEVYLGKEKFDSVDSKYMGRTSFDSDSWTLRLHNLQIKDKGIYQCIIHHKKPTGMVKIHEMNSELSVLA
notes: Expressed as gamma2/gamma4 fusion, protein A purified; not shown: gamma2/gamma4 Fc
EC50 (read off the curve) [4]: ~0.1 µg/mL | binding result [5]: no binding

B5: CD86 mutant clone 1039, gamma2/gamma4 fusion (Fc fusion)
chain: APLKIQAYFNETADLPCQFANSQNLSLSELVVFWQDQENLVLNEVYLGKEKFDSVSSKYMGRTSFDSDSWTLRLHNLQIKDKGIYQCIIHHKKPSGMVKIHQMDSELSVLA
notes: as for B4
EC50 (read off the curve) [4]: ~0.04 µg/mL | binding result [5]: no binding

B8: CD86 H79A mutant (Peach et al) control clone (ligand)
chain: APLKIQAYFNETADLPCQFANSQNQSLSELVVFWQDQENLVLNEVYLGKEKFDSVASKYMGRTSFDSDSWTLRLHNLQIKDKGLYQCIIHHKKPTGMIRIHQMNSELSVLA
notes: also called Prior Art; not shown: probably the same gamma2/gamma4 Fc fusion
EC50 (read off the curve) [3]: ~0.8 µg/mL

B14: Bispecific polypeptide 957/530 (bispecific antibody, human IgG1, kappa)
light: QSVLTQPPSASGTPGQRVTISCSGSSSNIGSNTVNWYQQLPGTAPKLLIYRNNQRPSGVPDRFSGSKSGTSASLAISGLRSEDEADYYCAAWDDSLSGWRFGGGTKLTVLGGTVAAPSVFIFPPSDEQLKSGTASVVCLLNNFYPREAKVQWKVDNALQSGNSQESVTEQDSKDSTYSLSSTLTLSKADYEKHKVYACEVTHQGLSSPVTKSFNRGECSGGGGSGGGGSAPLKIQAYFNETADLPCQFANSQNQSLSELIVFWQDQENLVLNEVYLGKERFDAVDSKYMGRTSFDSDSWTLRLHNLQIKDKGIYQCIIHHKKPSGMVKIHQMDSELSVLA
heavy: not shown
EC50 (read off the curve) [7]: ~0.2 µg/mL

B15: Bispecific polypeptide 959/530 (bispecific antibody, human IgG1, kappa)
light: LKIQAYFNETADLPCQFANSQNQSLSELIVFWQDQENLVLNEVYLGKERFDAVDSKYMGRTSFDSDSWTLRLHNLQIKDKGIYQCIIHHKKPSGMVKIHQMDSELSVLAKRTVAQSVLTQPPSASGTPGQRVTISCSGSSSNIGSNTVNWYQQLPGTAPKLLIYRNNQRPSGVPDRFSGSKSGTSASLAISGLRSEDEADYYCAAWDDSLSGWRFGGGTKLTVLGGTVAAPSVFIFPPSDEQLKSGTASVVCLLNNFYPREAKVQWKVDNALQSGNSQESVTEQDSKDSTYSLSSTLTLSKADYEKHKVYACEVTHQGLSSPVTKSFNRGEC
heavy: not shown
binding result [1]: binds

Second part, the binder after the results:

binding result [1]: binds
B1: Bispecific polypeptide 958/531 (bispecific antibody, human IgG1, kappa)
heavy: not shown
light: QSVLTQPPSASGTPGQRVTISCSGSSSNIGSNTVNWYQQLPGTAPKLLIYRNNQRPSGVPDRFSGSKSGTSASLAISGLRSEDEADYYCAAWDDSLSGWRFGGGTKLTVLGGTVAAPSVFIFPPSDEQLKSGTASVVCLLNNFYPREAKVQWKVDNALQSGNSQESVTEQDSKDSTYSLSSTLTLSKADYEKHKVYACEVTHQGLSSPVTKSFNRGEC

binding result [5]: no binding | EC50 (read off the curve) [6]: ~0.02 µg/mL
B6: CD86 mutant clone 1046, gamma2/gamma4 fusion (Fc fusion)
chain: APLKIQAYFNETADLPCQFANSQNQSLSELVVFWQDQENLVLNEVYLGKEKFDSVDSKYMGRTSFDSDSWTLRLHNLQIEDKGIYQCIIHHKKPSGMVKIHQMDSELSVLA
notes: as for B4

binding result [5]: no binding | EC50 (read off the curve) [6]: ~0.05 µg/mL
B7: CD86 mutant clone 1045, gamma2/gamma4 fusion (Fc fusion)
chain: APLKIQAYFNETADLPCQFANSQNLTLSELVVFWQDQENLVLNEVYLGKEKFDSVDSKYMGRTSFDSDSWTLRLHNLQIKDKGLYQCIIHHKKPTGLVKIHEMNSELSVLA
notes: as for B4

binding result [5]: no binding | EC50 (read off the curve) [6]: ~0.03 µg/mL
B9: CD86 mutant clone 1044, gamma2/gamma4 fusion (Fc fusion)
chain: APLKIQAYFNETADLPCQFANSQNLTLSELVVFWQDQENLVLNEVYLGKEKFDSVSSKYMGRTSFDSDSWTLRLHNLQIKDKGIYQCIIHHKKPTGMIKIHEMSSELSVLA
notes: as for B4

binding result [5]: no binding | EC50 (read off the curve) [6]: ~0.04 µg/mL
B10: CD86 mutant clone 1043, gamma2/gamma4 fusion (Fc fusion)
chain: APLKIQAYFNETADLPCQFANSQNLSLSELVVFWQDQENLVLNEVYLGKEKFDSVDSKYMGRTSFDSDSWTLRLHNLQIKDKGIYQCIIHHKKPTGMIKIHEMNSELSVLA
notes: as for B4

binding result [5]: no binding
B11: CD86 mutant clone 1047, gamma2/gamma4 fusion (Fc fusion)
chain: APLKIQAYFNETADLPCQFANSQNLSLSELVVFWQDQENLVLNEVYLGKEKFDSVDSKYMGRTSFDSDSWTLRLHNLQIKDKGIYQCIIHHKKPTGLVKIHEMNSELSVLA
notes: as for B4

EC50 (read off the curve) [4]: ~0.09 µg/mL | binding result [5]: no binding
B12: CD86 mutant clone 1041, gamma2/gamma4 fusion (Fc fusion)
chain: APLKIQAYLNETADLPCQFANSQNLSLSELVVFWQDQENLVLNEVYLGKEKFDSVDSKYMGRTSFDSDSWTLRLHNLQIKDKGIYQCIIHHKKPTGLVKIHEMNSELSVLA
notes: as for B4

binding result [7]: binds
B13: Bispecific polypeptide 956/530 (bispecific antibody, human IgG1, kappa)
light: QSVLTQPPSASGTPGQRVTISCSGSSSNIGSNTVNWYQQLPGTAPKLLIYRNNQRPSGVPDRFSGSKSGTSASLAISGLRSEDEADYYCAAWDDSLSGWRFGGGTKLTVLGGTVAAPSVFIFPPSDEQLKSGTASVVCLLNNFYPREAKVQWKVDNALQSGNSQESVTEQDSKDSTYSLSSTLTLSKADYEKHKVYACEVTHQGLSSPVTKSFNRGECSGGGGSGGGGSLKIQAYFNETADLPCQFANSQNQSLSELIVFWQDQENLVLNEVYLGKERFDAVDSKYMGRTSFDSDSWTLRLHNLQIKDKGIYQCIIHHKKPSGMVKIHQMDSELSVLA
heavy: not shown

binding result [1]: binds
B16: Bispecific polypeptide 960/530 (bispecific antibody, human IgG1, kappa)
light: LKIQAYFNETADLPCQFANSQNQSLSELIVFWQDQENLVLNEVYLGKERFDAVDSKYMGRTSFDSDSWTLRLHNLQIKDKGIYQCIIHHKKPSGMVKIHQMDSELSVLANFSQPQSVLTQPPSASGTPGQRVTISCSGSSSNIGSNTVNWYQQLPGTAPKLLIYRNNQRPSGVPDRFSGSKSGTSASLAISGLRSEDEADYYCAAWDDSLSGWRFGGGTKLTVLGGTVAAPSVFIFPPSDEQLKSGTASVVCLLNNFYPREAKVQWKVDNALQSGNSQESVTEQDSKDSTYSLSSTLTLSKADYEKHKVYACEVTHQGLSSPVTKSFNRGEC
heavy: not shown
